The target of assay [1] is CAT-2200 heavy chain Fab construct (H1) L143E_K145T_Q179E. The experiment in a line: LCCA, SPR tag read-out.
The target in assay [2] is CAT-2200 heavy chain Fab construct (H1) L143E_K145T. The experiment in a line: LCCA, SPR tag read-out.
In assay [3] the target is CAT-2200 heavy chain Fab construct (H1) S186R. Description: LCCA, SPR tag read-out.
Assay [4] deals with CAT-2200 heavy chain Fab construct (H1) Q179K. The experiment in a line: LCCA, SPR tag read-out.
The target of assay [5] is CAT-2200 heavy chain Fab construct (H1) S186R. Description: LCCA, SPR tag read-out. The source holds these as a separate data set.
The target in assay [6] is CAT-2200 heavy chain Fab construct (H1) D146G_Q179K. Description: LCCA, SPR tag read-out.
The target of assay [7] is CAT-2200 heavy chain Fab construct (H1) Q179K. Description: LCCA, SPR tag read-out. The source holds these as a separate data set.
In assay [8] the target is CAT-2200 heavy chain Fab construct (H1) L124E. Description: LCCA, SPR tag read-out.
The target in assay [9] is Pertuzumab kappa light chain S121K_T129K_S131K. The experiment in a line: LCCA.
In assay [10] the target is Pertuzumab kappa light chain S121K_S131K. The experiment in a line: LCCA.
The target of assay [11] is Pertuzumab kappa light chain S131K_L135A. Description: LCCA.
For assay [12], the target named is Pertuzumab kappa light chain S176K_T178L (L2), HA-tagged. Description: LCCA, SPR of light-chain tags.
In assay [13] the target is Pertuzumab kappa light chain S176K_T178K (L2), HA-tagged. The experiment in a line: LCCA, SPR of light-chain tags.
In assay [14] the target is Pertuzumab kappa light chain S176K_T178R (L2), HA-tagged. The experiment in a line: LCCA, SPR of light-chain tags.
Assay [15] addresses Pertuzumab kappa light chain S176K_T178K (L2), HA-tagged. Description: LCCA, SPR of light-chain tags. The source holds these as a separate data set.
Assay [16] has as its target Pertuzumab kappa light chain S176K_T178R (L2), HA-tagged. Description: LCCA, SPR of light-chain tags. The source holds these as a separate data set.
Assay [17] addresses Pertuzumab kappa light chain S176K_T178L (L2), HA-tagged. The experiment in a line: LCCA, SPR of light-chain tags. This is another data set of the same source.
Assay [18] has as its target Pertuzumab kappa light chain S176K_T178K (L2), HA-tagged. The experiment in a line: LCCA, SPR of light-chain tags. This is another data set of the same source.
In assay [19] the target is Pertuzumab kappa light chain S176K_T178R (L2), HA-tagged. The experiment in a line: LCCA, SPR of light-chain tags. This is another data set of the same source.
The target in assay [20] is Pertuzumab kappa light chain S176K_T178L (L2), HA-tagged. The experiment in a line: LCCA, SPR of light-chain tags. The source holds these as a separate data set.
Assay [21] concerns the target Pertuzumab kappa light chain S176K_T178K (L2), HA-tagged. Description: LCCA, SPR of light-chain tags. The source holds these as a separate data set.
Assay [22] concerns the target Pertuzumab kappa light chain S176K_T178R (L2), HA-tagged. The experiment in a line: LCCA, SPR of light-chain tags. This is another data set of the same source.
In assay [23] the target is Pertuzumab kappa light chain S176K_T178L (L2), HA-tagged. The experiment in a line: LCCA, SPR of light-chain tags. This is another data set of the same source.
Assay [24] addresses Pertuzumab kappa light chain S176K_T178K (L2), HA-tagged. Description: LCCA, SPR of light-chain tags. The source holds these as a separate data set.
Assay [25] addresses Pertuzumab kappa light chain S176K_T178R (L2), HA-tagged. Description: LCCA, SPR of light-chain tags. The source holds these as a separate data set.
In assay [26] the target is Pertuzumab kappa light chain V133A_S176K (L2), HA-tagged. Description: LCCA, SPR of light-chain tags.
The target in assay [27] is Pertuzumab kappa light chain V133G_S176R (L2), HA-tagged. Description: LCCA, SPR of light-chain tags.
The target in assay [28] is Pertuzumab kappa light chain V133A_S176K (L2), HA-tagged. Description: LCCA, SPR of light-chain tags. The source holds these as a separate data set.
For assay [29], the target named is Pertuzumab kappa light chain V133G_S176R (L2), HA-tagged. The experiment in a line: LCCA, SPR of light-chain tags. This is another data set of the same source.
The target of assay [30] is CAT-2200 lambda light chain V133L_S176D_Y178E (L1), FLAG-tagged. Description: LCCA, SPR of light-chain tags.
For assay [31], the target named is CAT-2200 lambda light chain S176E_Y178E (L1), FLAG-tagged. Description: LCCA, SPR of light-chain tags.
For assay [32], the target named is Pertuzumab kappa light chain V133A_S176K_T178A (L2), HA-tagged. The experiment in a line: LCCA, SPR of light-chain tags.
Assay [33] deals with Pertuzumab kappa light chain V133G_S176R_T178A (L2), HA-tagged. Description: LCCA, SPR of light-chain tags.
For assay [34], the target named is Pertuzumab kappa light chain V133A_S176K_T178A (L2), HA-tagged. Description: LCCA, SPR of light-chain tags. This is another data set of the same source.
Assay [35] addresses Pertuzumab kappa light chain V133G_S176R_T178A (L2), HA-tagged. The experiment in a line: LCCA, SPR of light-chain tags. This is another data set of the same source.
The target in assay [36] is CAT-2200 lambda light chain V133L_S176D_Y178E (L1), FLAG-tagged. Description: LCCA, SPR of light-chain tags. The source holds these as a separate data set.
Assay [37] has as its target CAT-2200 lambda light chain S176E_Y178E (L1), FLAG-tagged. Description: LCCA, SPR of light-chain tags. This is another data set of the same source.
The target in assay [38] is CAT-2200 lambda light chain K129T_V133W_S180E. Description: LCCA.
Assay [39] concerns the target Pertuzumab kappa light chain Q124K_V133A_T178R. Description: LCCA.
Assay [40] concerns the target Pertuzumab kappa light chain Q124R_L135W_Q160K_T178R. Description: LCCA.
The target in assay [41] is Pertuzumab kappa light chain Q124R_L135W_T178R. The experiment in a line: LCCA.
Assay [42] addresses Pertuzumab kappa light chain Q124R_Q160K_T178R. The experiment in a line: LCCA.
Assay [43] has the same target. Description: LCCA. This is another data set of the same source.
Assay [44] addresses Pertuzumab kappa light chain Q124K_S176A_T178R. The experiment in a line: LCCA.
Assay [45] addresses CAT-2200 lambda light chain Y178K. Description: LCCA.
For assay [46], the target named is Pertuzumab kappa light chain Q124E_V133D_S176E_T180E. The experiment in a line: LCCA.
Assay [47] has as its target Pertuzumab kappa light chain Q124E_V133D_S176E_T178E_T180E. The experiment in a line: LCCA.
The target of assay [48] is Pertuzumab kappa light chain Q124E_S176E_T178E_T180E. The experiment in a line: LCCA.
Assay [49] has as its target Pertuzumab kappa light chain Q124E_S176E_T180E. Description: LCCA.
Assay [50] deals with Pertuzumab kappa light chain Q124E_S176E_T178D_T180E. Description: LCCA.
Assay [51] deals with CAT-2200 lambda light chain Y178K. Description: LCCA. The source holds these as a separate data set.
Assay [52] deals with CAT-2200 lambda light chain S176K_Y178K (L1), N-terminal FLAG tag. The experiment in a line: LCCA, SPR of light chain tags.
For assay [53], the target named is Pertuzumab kappa light chain V133D (L2), N-terminal HA tag. The experiment in a line: LCCA, SPR of light chain tags.
For assay [54] the target is unchanged. Description: LCCA, SPR of light chain tags. The source holds these as a separate data set.
For assay [55], the target named is Pertuzumab kappa light chain Q124E_Q160E_S176D_T178D_T180E. Description: LCCA.
Assay [56] deals with Pertuzumab kappa light chain Q124E_Q160E_S176D_T178D. Description: LCCA.
The target in assay [57] is Pertuzumab kappa light chain Q124E_Q160E_S176A_T178A_T180E (L2), N-terminal HA tag. The experiment in a line: LCCA, SPR of light chain tags.

Here are results for 17 substances from patent US20190338048A1.

Where two headings read alike, the source gives them in different places.

Consider “CAT-2200 lambda light chain construct (L1) E124K_Y178R, FLAG-tagged”, for which the H1L1:H1L2 normalized median scalar value ln(r1/f1) in assay [1] was -0.13.
Consider “CAT-2200 lambda light chain construct (L1) E124R, FLAG-tagged”, for which the H1L1:H1L2 normalized median scalar value ln(r1/f1) in [2] was -0.11.
For the substance “CAT-2200 lambda light chain construct (L1) S180E, FLAG-tagged”, the H1L1:H1L2 normalized median scalar value ln(r1/f1) in assay [3] is 2.07; in assay [4] it was 0.94; in [5] it was 2.24; in [6], 2.16; in assay [7], 2.32.
On to “CAT-2200 lambda light chain construct (L1) V133G_S176R, FLAG-tagged”, for which the H1L1:H1L2 normalized median scalar value ln(r1/f1) in assay [8] is 0.08.
For the substance “Pertuzumab Fab heavy chain K145T_Q179E_K228D”, in assay [9], the H2L2:H2L1 median scalar value came to 0.07 ln and the H2L2:H2L1 normalized median ratio worked out at 51%. Further, the H2L2:H2L1 median scalar value in assay [10] was -0.1 ln.
Turning to “Pertuzumab Fab heavy chain K145T_Q179E_S188F_V190F”, the H2L2:H2L1 median scalar value in [11] is -0.45 ln.
Turning to “Pertuzumab Fab heavy chain K145T_V177D_S188D (H2)”, the H2L2:H2L1 normalized median scalar value ln(r1/f1) in assay [12] came out at 2.29; in assay [13], 1.83; in assay [14], 1.64; in assay [15], 1.09; in assay [16], 1.75; in [17] it was 1.59. In addition, the H2L2:H2L1 normalized median scalar value ln(r1/f1) in [18] was found to be 1.93; in assay [19], 1.59; in assay [20], 1.52; in [21], 1.95; in [22], 1.9; in [23], 2.11. For the same substance, the figures for the H2L2:H2L1 normalized median scalar value ln(r1/f1) in assay [24] and in assay [25] were 2.4 and 2.3, respectively.
Pertuzumab Fab heavy chain L124E (H2): the H2L2:H2L1 normalized median scalar value ln(r1/f1) was 1.69 in assay [26], 2.32 in assay [27], -0.15 in assay [28] and 0.25 in assay [29].
On to “Pertuzumab Fab heavy chain L124E_S188W (H2)”, for which the H2L2:H2L1 normalized median ratio (H2L1 share) in [30] turned out to be 15%; in assay [31], 46%; in assay [36], 14%; in [37], 46%. The H2L2:H2L1 normalized median ratio, H2L2 share in assay [32] amounted to 85%; in [33], 86%; in [34] it was 54%; in [35], 54%. For the same substance, the H2L2:H2L1 normalized median scalar value ln(r1/f1) in assay [32] is 1.71; in assay [33], 1.84; in assay [34], 0.18; in assay [35], 0.15.
Take “Pertuzumab Fab heavy chain L124W_L143E_K145T”: in [38], the H2L2:H2L1 normalized median ratio stood at 33%. Moreover, in [39], the H2L2:H2L1 median scalar value came out at 0.73 ln and the H2L2:H2L1 normalized median ratio was determined as 67%.
In the case of Pertuzumab Fab heavy chain L143E_K145T, the H2L2:H2L1 median scalar value was -0.26 ln in assay [40], -0.32 ln in [41], 0.86 ln in assay [42] and 3.09 ln in assay [43].
In assay [44], “Pertuzumab Fab heavy chain L143E_K145T_S188W” registered an H2L2:H2L1 median scalar value of 0.43 ln.
Regarding Pertuzumab Fab heavy chain L143K_S188K, the H2L2:H2L1 normalized median ratio in [45] was 27%; in assay [46] it was 73%. The H2L2:H2L1 median scalar value in assay [46] turned out to be 1.01 ln; in [47], 0.61 ln.
On to Pertuzumab Fab heavy chain Q179K_S188K, for which the H2L2:H2L1 normalized median ratio was determined as 12% in assay [45], 92% in assay [48], 88% in assay [50] and 8% in assay [51]. Also, the values for the H2L2:H2L1 median scalar value in [48], in [49] and in assay [50] were 2.48 ln, 2.76 ln and 2.01 ln, respectively.
Turning to “Pertuzumab Fab heavy chain S186K_S188T (H2), ABD2-His6 tagged”, the figures for the H2L2:H2L1 normalized median ratio in [52], in assay [53] and in assay [54] were 38%, 70% and 62%, respectively. For the same substance, the H2L2:H2L1 normalized median scalar value ln(r1/f1) in assay [53] was determined as 0.85; in [54] it was 0.49.
Take Pertuzumab Fab heavy chain S186R_S188K: the H2L2:H2L1 median scalar value is 0 ln in assay [55] and 0.8 ln in assay [56]. Also, the H2L2:H2L1 normalized median ratio worked out at 31% in assay [45] and 69% in [56].
In [57], “Pertuzumab Fab heavy chain S186R_S188W (H2), ABD2-His6 tagged” showed an H2L2:H2L1 normalized median scalar value ln(r1/f1) of 2.64.
